Format in all cases: cell-based
The subject of assay [1] is CSCs generated from differentiated cancer cells. Nature of the assay: Self-renewal of CSCs (secondary tumorspheres) generated from differentiated cancer cells, factor added to basic protocol. The method, then: (§1) In order to generate CSCs in vitro, both primary differentiated cancer cells (primary glioma cells) as well as cells from a cancer cell line (U87 cells) were obtained. Glioma cells and U87 cells were trypsinized, and washed three times with medium +10% FCS. The cells were then resuspended in medium that was brought to a pH of 6.0 and were placed on a rotator and incubated for 45-90 minutes. The cells were then incubated in medium supplemented with EGF and FGF. The cells were optionally kept in mild hypoxic conditions (2-3% oxygen) during this second incubation and were then plated on bacterial plates.
(§2) Tumorspheres formed on these plates within one week and were removed from the cells that had attached to the dish. The tumorspheres were disaggregated and the cells were re-plated at limiting dilution to generate secondary spheroids. The secondary tumorspheres were then characterized for CSC specific markers, the ability to self-renew and the ability to generate tumors that recapitulate the parental tumors.
Knowing that the basic protocol for generating CSCs (acid, EGF/FGF and two rounds of sphere generation) was successful; several modifications to the protocol were examined. […]

Assay [2] concerns Sox2. Nature of the assay: Sox2 expression in generated CSCs, factor added to basic protocol. The method, then: as §1, §2
Knowing that the basic protocol for generating CSCs (acid, EGF/FGF and two rounds of sphere generation) was successful; several modifications to the protocol were examined. […] Second, a wide range of factors were found, that when supplemented to the EGF and FGF containing media, increased the efficacy of the protocol, either by increasing the number of CSCs produced or by increasing their stemness.

The test system of assay [3] is differentiated cancer cells. The experiment in a line: Efficacy and penetrance of dedifferentiation with transcription and secreted factors. The note with it: expression in the cells or in their media during second incubation or tumorsphere formation. The method, then: as §1, §2
Lastly, several transcription factors and secreted factors that are known to enhance stemness or cancer progression were introduced into the differentiated cells during the second incubation or during tumorsphere formation.

B1: Lin-28: overexpressed factor, called miR in b196 and protein in b22 (protein, UniProt Q9H9Z2 2-209, looked up)
Protein lin-28 homolog A: GSVSNQQFAGGCAKAAEEAPEEAPEDAARAADEPQLLHGAGICKWFNVRMGFGFLSMTARAGVALDPPVDVFVHQSKLHMEGFRSLKEGEAVEFTFKKSAKGLESIRVTGPGGVFCIGSERRPKGKSMQKRRSKGDRCYNCGGLDHHAKECKLPPQPKKCHFCQSISHMVASCPLKAQQGPSAQGKPTYFREEEEEIHSPTLLPEAQN
In the case of B1, the “self-renewal over the basic protocol” value in assay [1] (overexpressed miR or polynucleotide inhibitor, FIG. 7A) is reported as “improved”. Moreover, the “Sox2 expression over the basic protocol” value in assay [2] (overexpressed miR or polynucleotide inhibitor, FIG. 7B) is listed as “improved”.

B2: IL10: anti-inflammatory cytokine (protein, UniProt P22301 19-178, looked up)
Interleukin-10: SPGQGTQSENSCTHFPGNLPNMLRDLRDAFSRVKTFFQMKDQLDNLLLKESLLEDFKGYLGCQALSEMIQFYLEEVMPQAENQDPDIKAHVNSLGENLKTLRLRLRRCHRFLPCENKSKAVEQVKNAFNKLQEKGIYKAMSEFDIFINYIEAYMTMKIRN
For B2, the “effect on rate of self-renewal” value in assay [1] (cytokine supplemented to second incubation media, FIG. 4A) is on record as “no effect”. Also, the “effect on Sox2 expression” value in assay [2] (cytokine supplemented to second incubation media, FIG. 4B) is given as “no effect”.

B3: PKC epsilon: protein kinase C epsilon; activators or overexpression (protein, UniProt Q02156 1-737, looked up)
Protein kinase C epsilon type: MVVFNGLLKIKICEAVSLKPTAWSLRHAVGPRPQTFLLDPYIALNVDDSRIGQTATKQKTNSPAWHDEFVTDVCNGRKIELAVFHDAPIGYDDFVANCTIQFEELLQNGSRHFEDWIDLEPEGRVYVIIDLSGSSGEAPKDNEERVFRERMRPRKRQGAVRRRVHQVNGHKFMATYLRQPTYCSHCRDFIWGVIGKQGYQCQVCTCVVHKRCHELIITKCAGLKKQETPDQVGSQRFSVNMPHKFGIHNYKVPTFCDHCGSLLWGLLRQGLQCKVCKMNVHRRCETNVAPNCGVDARGIAKVLADLGVTPDKITNSGQRRKKLIAGAESPQPASGSSPSEEDRSKSAPTSPCDQEIKELENNIRKALSFDNRGEEHRAASSPDGQLMSPGENGEVRQGQAKRLGLDEFNFIKVLGKGSFGKVMLAELKGKDEVYAVKVLKKDVILQDDDVDCTMTEKRILALARKHPYLTQLYCCFQTKDRLFFVMEYVNGGDLMFQIQRSRKFDEPRSRFYAAEVTSALMFLHQHGVIYRDLKLDNILLDAEGHCKLADFGMCKEGILNGVTTTTFCGTPDYIAPEILQELEYGPSVDWWALGVLMYEMMAGQPPFEADNEDDLFESILHDDVLYPVWLSKEAVSILKAFMTKNPHKRLGCVASQNGEDAIKQHPFFKEIDWVLLEQKKIKPPFKPRIKTKRDVNNFDQDFTREEPVLTLVDEAIVKQINQEEFKGFSYFGEDLMP
Take B3: in assay [2] (PKC activation, FIG. 6B), the “effect on Sox2 expression” value was “increase Sox2 expression” and the “effectiveness on Sox2 expression compared with PMA” value is “more effective that PMA”.

B4: CEBP/B: transcription or secreted factor expressed in the cells or in their media (protein, UniProt P17676 1-345, looked up)
CCAAT/enhancer-binding …: MQRLVAWDPACLPLPPPPPAFKSMEVANFYYEADCLAAAYGGKAAPAAPPAARPGPRPPAGELGSIGDHERAIDFSPYLEPLGAPQAPAPATATDTFEAAPPAPAPAPASSGQHHDFLSDLFSDDYGGKNCKKPAEYGYVSLGRLGAAKGALHPGCFAPLHPPPPPPPPPAELKAEPGFEPADCKRKEEAGAPGGGAGMAAGFPYALRAYLGYQAVPSGSSGSLSTSSSSSPPGTPSPADAKAPPTACYAGAAPAPSQVKSKAKKTVDKHSDEYKIRRERNNIAVRKSRDKAKMRNLETQHKVLELTAENERLQKKVEQLSRELSTLRNLFKQLPEPLLASSGHC
Regarding B4, the “effect on dedifferentiation brought about by the standard protocol” value in assay [3] was “increase the efficacy and penetrance of the dedifferentiation”.

B5: RUNX2: transcription or secreted factor expressed in the cells or in their media (protein, UniProt Q13950 1-521, looked up)
Runt-related transcription …: MASNSLFSTVTPCQQNFFWDPSTSRRFSPPSSSLQPGKMSDVSPVVAAQQQQQQQQQQQQQQQQQQQQQQQEAAAAAAAAAAAAAAAAAVPRLRPPHDNRTMVEIIADHPAELVRTDSPNFLCSVLPSHWRCNKTLPVAFKVVALGEVPDGTVVTVMAGNDENYSAELRNASAVMKNQVARFNDLRFVGRSGRGKSFTLTITVFTNPPQVATYHRAIKVTVDGPREPRRHRQKLDDSKPSLFSDRLSDLGRIPHPSMRVGVPPQNPRPSLNSAPSPFNPQGQSQITDPRQAQSSPPWSYDQSYPSYLSQMTSPSIHSTTPLSSTRGTGLPAITDVPRRISDDDTATSDFCLWPSTLSKKSQAGASELGPFSDPRQFPSISSLTESRFSNPRMHYPATFTYTPPVTSGMSLGMSATTHYHTYLPPPYPGSSQSQSGPFQTSSTPYLYYGTSSGSYQFPMVPGGDRSPSRMLPPCTTTSNGSTLLNPNLPNQNDGVDADGSHSSSPTVLNSSGRMDESVWRPY
For B5, the “effect on dedifferentiation brought about by the standard protocol” value in assay [3] is “increase the efficacy and penetrance of the dedifferentiation”.

B6: WNT5A: transcription or secreted factor expressed in the cells or in their media (protein, UniProt P41221 62-380, looked up)
Protein Wnt-5a: IIGAQPLCSQLAGLSQGQKKLCHLYQDHMQYIGEGAKTGIKECQYQFRHRRWNCSTVDNTSVFGRVMQIGSRETAFTYAVSAAGVVNAMSRACREGELSTCGCSRAARPKDLPRDWLWGGCGDNIDYGYRFAKEFVDARERERIHAKGSYESARILMNLHNNEAGRRTVYNLADVACKCHGVSGSCSLKTCWLQLADFRKVGDALKEKYDSAAAMRLNSRGKLVQVNSRFNSPTTQDLVYIDPSPDYCVRNESTGSLGTQGRLCNKTSEGMDGCELMCCGRGYDQFKTVQTERCHCKFHWCCYVKCKKCTEIVDQFVCK
In the case of B6, the “effect on dedifferentiation brought about by the standard protocol” value in assay [3] is “increase the efficacy and penetrance of the dedifferentiation”.

B7: COX2: transcription or secreted factor expressed in the cells or in their media (protein, UniProt P35354 18-604, looked up)
Prostaglandin G/H synthase 2: ANPCCSHPCQNRGVCMSVGFDQYKCDCTRTGFYGENCSTPEFLTRIKLFLKPTPNTVHYILTHFKGFWNVVNNIPFLRNAIMSYVLTSRSHLIDSPPTYNADYGYKSWEAFSNLSYYTRALPPVPDDCPTPLGVKGKKQLPDSNEIVEKLLLRRKFIPDPQGSNMMFAFFAQHFTHQFFKTDHKRGPAFTNGLGHGVDLNHIYGETLARQRKLRLFKDGKMKYQIIDGEMYPPTVKDTQAEMIYPPQVPEHLRFAVGQEVFGLVPGLMMYATIWLREHNRVCDVLKQEHPEWGDEQLFQTSRLILIGETIKIVIEDYVQHLSGYHFKLKFDPELLFNKQFQYQNRIAAEFNTLYHWHPLLPDTFQIHDQKYNYQQFIYNNSILLEHGITQFVESFTRQIAGRVAGGRNVPPAVQKVSQASIDQSRQMKYQSFNEYRKRFMLKPYESFEELTGEKEMSAELEALYGDIDAVELYPALLVEKPRPDAIFGETMVEVGAPFSLKGLMGNVICSPAYWKPSTFGGEVGFQIINTASIQSLICNNVKGCPFTSFSVPDPELIKTVTINASSSRSGLDDINPTVLLKERSTEL
Consider B7, for which the “effect on dedifferentiation brought about by the standard protocol” value in assay [3] is “increase the efficacy and penetrance of the dedifferentiation”.

For the origin of these results see US11053476B2, “Generation of cancer stem cells and use thereof” (EXOSTEM BIOTEC LTD., priority 2016, dated 2021).
